From patent US20190194280A1

Legend:
[1] = target: Serum samples collected at week 16 from patients immunized with UBI AD vaccine (UB-311); assay: comp. ELISA, serum P106
[2] = target: Serum samples collected at week 16 from patients immunized with UBI AD vaccine (UB-311); assay: comp. ELISA, serum P109
[3] = target: Serum samples collected at week 16 from patients immunized with UBI AD vaccine (UB-311); assay: comp. ELISA, serum P105
[4] = target: Serum samples collected at week 16 from patients immunized with UBI AD vaccine (UB-311); assay: comp. ELISA, serum P101
[5] = target: Serum samples collected at week 16 from patients immunized with UBI AD vaccine (UB-311); assay: comp. ELISA, serum P204
[6] = target: Serum samples collected at week 16 from patients immunized with UBI AD vaccine (UB-311); assay: comp. ELISA, serum P202
[7] = target: Serum samples collected at week 16 from patients immunized with UBI AD vaccine (UB-311); assay: comp. ELISA, serum P208
[8] = target: Serum samples collected at week 16 from patients immunized with UBI AD vaccine (UB-311); assay: comp. ELISA, serum P108
[9] = target: Serum samples collected at week 16 from patients immunized with UBI AD vaccine (UB-311); assay: comp. ELISA, serum P102
[10] = target: Serum samples collected at week 16 from patients immunized with UBI AD vaccine (UB-311); assay: comp. ELISA, serum P210
[11] = target: Serum samples collected at week 16 from patients immunized with UBI AD vaccine (UB-311); assay: comp. ELISA, serum P205
[12] = target: Serum samples collected at week 16 from patients immunized with UBI AD vaccine (UB-311); assay: comp. ELISA, serum P107
[13] = target: Serum samples collected at week 16 from patients immunized with UBI AD vaccine (UB-311); assay: comp. ELISA, serum P103
[14] = target: Serum samples collected at week 16 from patients immunized with UBI AD vaccine (UB-311); assay: comp. ELISA, serum P104
[15] = target: Serum samples collected at week 16 from patients immunized with UBI AD vaccine (UB-311); assay: comp. ELISA, serum P203
[16] = target: Serum samples collected at week 16 from patients immunized with UBI AD vaccine (UB-311); assay: comp. ELISA, serum P206
[17] = target: Serum samples collected at week 16 from patients immunized with UBI AD vaccine (UB-311); assay: comp. ELISA, serum P201
[18] = target: Serum samples collected at week 16 from patients immunized with UBI AD vaccine (UB-311); assay: comp. ELISA, serum P209
[19] = target: Serum samples collected at week 16 from patients immunized with UBI AD vaccine (UB-311); assay: comp. ELISA, serum P207

| Binder | IC50-based peak height [1] | IC50-based peak height [2] | IC50-based peak height [3] | IC50-based peak height [4] | IC50-based peak height [5] | IC50-based peak height [6] | IC50-based peak height [7] | IC50-based peak height [8] | IC50-based peak height [9] | IC50-based peak height [10] | IC50-based peak height [11] | IC50-based peak height [12] | IC50-based peak height [13] | IC50-based peak height [14] | IC50-based peak height [15] | IC50-based peak height [16] | IC50-based peak height [17] | IC50-based peak height [18] | IC50-based peak height [19] |
| --- | --- | --- | --- | --- | --- | --- | --- | --- | --- | --- | --- | --- | --- | --- | --- | --- | --- | --- | --- |
| EVHHQKLVFF [Aβ11-20 or APP 770 (E682-F691)] | 0 | 0 | 0 | 0 | 0 | 0 | 0 | 0 | 0 | 0 | 0 | 0 | 0 | 0 | 0 | 0 | 0 | 0 | 0 |
| VHHQKLVFFA [Aβ12-21 or APP 770 (V683-A692)] | 0 | 0 | 0 | 0 | 0 | 0 | 0 | 0 | 0 | 0 | 0 | 0 | 0 | 0 | 0 | 0 | 0 | 0 | 27 |
| GYEVHHQKLV [Aβ9-18 or APP 770 (G680-V689)] | 0 | 0 | 0 | 0 | 0 | 0 | 0 | 0 | 0 | 0 | 0 | 0 | 0 | 0 | 0 | 0 | 0 | 0 | 16 |
| RHDSGYEVHH [Aβ5-14 or APP 770 (R676-H685)] | 0 | 0 | 0 | 0 | 0 | 0 | 0 | 0 | 0 | 0 | 0 | 0 | 0 | 0 | 0 | 0 | 0 | 0 | 0 |
| HDSGYEVHHQ [Aβ6-15 or APP 770 (H677-Q686)] | 0 | 0 | 0 | 0 | 0 | 0 | 0 | 0 | 0 | 0 | 0 | 0 | 0 | 0 | 0 | 0 | 0 | 0 | 0 |
| EVKMDAEFRH [Aβ-4-6 or APP 770 (E668-H677)] | 0 | 0 | 0 | 1 | 0 | 0 | 0 | 0 | 0 | 0 | 0 | 0 | 0 | 0 | 0 | 0 | 58 | 0 | 1 |
| DSGYEVHHQK [Aβ7-16 or APP 770 (D678-K687)] | 0 | 0 | 0 | 214 | 0 | 0 | 0 | 0 | 0 | 0 | 0 | 0 | 0 | 0 | 0 | 0 | 0 | 0 | 0 |
| VKMDAEFRHD [Aβ-3-7 or APP 770 (V669-D678)] | 0 | 0 | 0 | 31 | 1 | 0 | 0 | 0 | 0 | 13 | 0 | 0 | 0 | 0 | 0 | 0 | 0 | 0 | 0 |
| SGYEVHHQKL [Aβ8-17 or APP 770 (S679-L688)] | 0 | 0 | 0 | 0 | 0 | 0 | 0 | 0 | 0 | 0 | 0 | 0 | 0 | 0 | 0 | 0 | 0 | 0 | 0 |
| YEVHHQKLVF [Aβ10-19 or APP 770 (Y681-F690)] | 0 | 0 | 0 | 0 | 0 | 0 | 0 | 0 | 0 | 0 | 0 | 0 | 0 | 0 | 0 | 0 | 0 | 0 | 10 |
